Data from paper doi:10.1101/2020.09.01.276469.

Experiments:
Test in all cases: BLI
[1] = biological target: TPX2 C-terminus (a.a. 480-716) (Xenopus laevis) (UniProt Q6NUF4)
[2] = biological target: TPX2 aa1-178Δ123 (TPX2 1-178 with the KKLK motif mutated) (Xenopus laevis) (UniProt Q6NUF4)
[3] = biological target: double-mutant TPX2 (DM-TPX2) (Xenopus laevis) (UniProt Q6NUF4)
[4] = biological target: triple-mutant TPX2 (TM-TPX2) (Xenopus laevis) (UniProt Q6NUF4)

Sequence of importin-αΔIBB (importin-α without the importin-β binding domain) (domain or fragment) (P52170 71-522, stated change not applied): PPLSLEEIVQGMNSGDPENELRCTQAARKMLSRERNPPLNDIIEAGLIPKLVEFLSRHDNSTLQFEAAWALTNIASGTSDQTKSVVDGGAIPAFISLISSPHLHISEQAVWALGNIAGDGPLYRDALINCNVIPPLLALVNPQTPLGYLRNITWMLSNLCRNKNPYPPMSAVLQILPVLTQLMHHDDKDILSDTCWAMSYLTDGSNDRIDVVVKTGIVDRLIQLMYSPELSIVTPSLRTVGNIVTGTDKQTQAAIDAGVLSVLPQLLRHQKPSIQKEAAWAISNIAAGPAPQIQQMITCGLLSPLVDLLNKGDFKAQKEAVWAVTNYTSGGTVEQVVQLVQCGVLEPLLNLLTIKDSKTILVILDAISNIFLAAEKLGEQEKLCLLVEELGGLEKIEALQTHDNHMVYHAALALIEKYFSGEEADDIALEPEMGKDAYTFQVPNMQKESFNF
Sequence of importin-β (P52297 whole entry): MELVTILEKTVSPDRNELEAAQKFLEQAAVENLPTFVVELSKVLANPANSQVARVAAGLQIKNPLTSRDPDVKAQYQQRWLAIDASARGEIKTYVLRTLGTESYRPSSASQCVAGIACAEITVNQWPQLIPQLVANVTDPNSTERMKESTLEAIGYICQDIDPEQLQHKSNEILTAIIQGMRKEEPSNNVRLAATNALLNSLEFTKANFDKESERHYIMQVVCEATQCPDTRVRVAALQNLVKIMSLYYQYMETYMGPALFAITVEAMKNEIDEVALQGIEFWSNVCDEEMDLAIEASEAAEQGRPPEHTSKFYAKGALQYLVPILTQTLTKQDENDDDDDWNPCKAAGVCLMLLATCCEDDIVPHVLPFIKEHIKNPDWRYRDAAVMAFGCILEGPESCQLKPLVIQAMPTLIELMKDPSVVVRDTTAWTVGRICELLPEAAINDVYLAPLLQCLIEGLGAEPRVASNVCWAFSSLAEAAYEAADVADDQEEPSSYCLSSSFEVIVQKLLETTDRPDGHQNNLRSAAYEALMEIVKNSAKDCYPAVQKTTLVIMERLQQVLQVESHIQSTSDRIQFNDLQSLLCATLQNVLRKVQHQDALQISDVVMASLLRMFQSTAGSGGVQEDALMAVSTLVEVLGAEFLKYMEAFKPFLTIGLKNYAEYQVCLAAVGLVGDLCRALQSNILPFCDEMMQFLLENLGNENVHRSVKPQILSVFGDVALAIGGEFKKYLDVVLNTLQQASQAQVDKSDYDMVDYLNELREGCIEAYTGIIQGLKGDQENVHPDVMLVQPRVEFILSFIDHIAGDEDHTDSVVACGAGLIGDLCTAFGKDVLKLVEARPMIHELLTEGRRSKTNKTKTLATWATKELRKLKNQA
Sequence of TPX2 C-terminus (a.a. 480-716) (Xenopus laevis) (Q6NUF4 480-716): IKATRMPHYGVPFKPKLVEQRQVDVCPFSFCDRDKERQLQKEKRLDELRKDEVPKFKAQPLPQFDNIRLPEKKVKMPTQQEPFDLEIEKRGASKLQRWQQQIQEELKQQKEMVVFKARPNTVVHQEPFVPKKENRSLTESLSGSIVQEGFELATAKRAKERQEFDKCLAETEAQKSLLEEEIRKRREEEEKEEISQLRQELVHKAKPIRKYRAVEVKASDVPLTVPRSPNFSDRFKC

In the case of “importin-β (from UniProt P52297 1-876) (natural protein)”, the Kd [1] is reported as greater than 4000 nM.
“importin-αΔIBB (importin-α without the importin-β binding domain) (domain or fragment)” showed a fold loss of binding against the wild type 1-178 TPX2 construct [2] of 10 fold, a Kd [3] of 45 nM and a Kd [4] of 410 nM.
